{"source": "paper PMC3169410", "about": "(Acta Crystallographica Section F: Structural Biology and …, 2011)", "proteins": {"B1": {"name": "BrabA.11339.a, putative β-lactamase-like protein from Brucella melitensis biovar Abortus 2308 (natural protein)", "chain": "TSPRNCLRFTLLGCGSSPGVPRINGDWGKCDPKNPKNRRRRASLLVERYDAEGNNTVVVIDTGPDFRMQMIDSGVHMLDAAVYTHPHADHIHGIDDLRTYVVDNGRLMDVYANRLTRNRLYDTFGYCFETPVGSSYPPILSMHDIAPETPFSIEGAGGAIRFEPFSQVHGDIESLGFRIGSVVYCTDVSAFPEQSLQYIKDADVLIIGALQYRPHPSHFSLGEALEWIEKLSPKRAILTHMHVPLDYETVMRETPHHVEPGYDGLRFEVAV", "notes": "also called BAB1_1016"}}, "target": "the molecule itself", "assay": "crystal structure", "data": [{"protein": "B1", "values": [{"measurement": "stoichiometry N", "value": 2}]}]}
